Laboratory results reported in the supplement of paper PMC9170038.

System: MS2 coat protein
Assay: apparent KD of MS2 coat protein; designed switch direction (-1 OFF switch, 1 ON switch): -1; higher = weaker reporter binding
How it was run: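 Transcription of designed RNA switches on Illumina chips was done by stalled E. coli RNA polymerase. SNAP-549-labelled MS2 coat protein was then titrated in doubling steps from 0.7 or 1.5 nM to 3 µM, with steps of 0.8–1.5 h at the lowest and 10–20 min at the highest concentration. The per-design median over clusters of curve-fitted normalised fluorescence is reported as apparent KD.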

[1] = Eterna round: R95, input ligand: microRNA oligo, concentration not stated
[2] = Eterna round: R95, input ligand: FMN 200 uM
[3] = Eterna round: R95, input ligand: none
[4] = input ligand: microRNA oligo, concentration not stated

| Sequence | apparent KD of MS2 coat protein [1] [nM] | apparent KD of MS2 coat protein (input ligand: FMN 200 uM) [nM] | apparent KD of MS2 coat protein (input ligand: none) [nM] | further results |
| --- | --- | --- | --- | --- |
| CUUUACAUAGGAUAUAGUUGCUUUUACAUGAGGAUCACCCAUGUCUCUCCUCUCUCUCUUCUAGAAGGAUGUUUCU [JR_E5_Sub010] (puzzle: Exclusion 5) | 56 | – | – | – |
| GCUGGUCGAGGAUAUACAUGAGGAUCACCCAUGUAGAUCAACCAGCGAUAGCUGGAAUGUAGAAGGCGACCAGC [E3/5-A1] (Eterna round: R97, puzzle: Exclusion 3) | – | 125 | 22.9 | – |
| UAUUAACAAGCAAGGUCCCACAUGAGGAUCACCCAUGUGCUCGUCUUAUAAGGUACUGUGACGAAAGUCACGGUACC [Sensor 3, v1 - 81] (puzzle: Sensor v3, turn-off variant 1) | 469 | – | – | apparent KD of MS2 coat protein [2]: 32.4 nM; apparent KD of MS2 coat protein [3]: 33.6 nM |
| CUUACACAUGAGGAUCACCCAUGUGAGGAUAUGCGUACGUUGUCCGUAGGCGACGUGCGCAGAAGGCGCUUGGU [JL-ex1-3.19 Eli mod] (puzzle: Exclusion 1) | 55.3 | – | – | – |
| UUUUAACAUGAGGAUCACCCAUGUGAGGAUAUCGAAAUUUAUAUUUAUAUUUAUUAAACGAGAAGGCACAUUUU [JMF 99] (puzzle: Exclusion 1) | 66.9 | – | – | – |
| UGUUGUCGCGCAGGAUAUGGCCAACAGGCCCUAGGAUAUCCGAAAGGAGAAGGAGCGCCAACAGGCGAGAAGGGCGGGACAACU [pwkr exNG2 2xF7 2xFMN.16] (Eterna round: R96, puzzle: Exclusion NG 2) | – | 19.5 | 29.7 | apparent KD of MS2 coat protein [4]: 4.03 nM |
| ACAUGAGGAUCACCCAUGUUUUUCGGGUACUCUUGAUACAGCAAGGAUAUGCAUUAUUUAUGUACGCAGAAGGUGCAUUACGUC [JR_ExcNG3_Sub064] (Eterna round: R96, puzzle: Exclusion NG 3) | – | 104 | 71.9 | apparent KD of MS2 coat protein [4]: 67 nM |
| CCUCCCGCCGUCAGGAUAUGCCGUACCGCUGCGCUCCAGAAGGCACUUGAGGAUCACCCAAGUACCCGUGAGGC [salish99_bmod_ex4_r4_009] (Eterna round: R97, puzzle: Brourd's mod of Exclusion 4) | – | 16 | 16.1 | – |
| CCUCGACAUGAGGAUCACCCAUGUCAGGAUAUUGUGUAUCGGGUUUUUUACCGAAAGGCGAGAAGGGAUGUGUG [LRO-Excl1-11] (puzzle: Exclusion 1) | 15 | – | – | – |
| GGGAAGAACCAACAAGUAAACAUGAGGAUCACCCAUGUAAACUUCAUGUGCACGCUUUGCGUGCAAGCUCGUCUUAU [AK-miRNA-r3-14] (Eterna round: R97, puzzle: Sensor, turn-off variant 1) | – | 19.2 | 18.6 | – |
| CAUACACAUGAGGAUCACCCAUGUGAGGAUAUGCGUACGUUGUCCGUAGGCGACGUGCGCAGAAGGCGCAUGAG [JL-ex1-3.13 Eli mod] (puzzle: Exclusion 1) | 90.9 | – | – | apparent KD of MS2 coat protein [2]: 27.6 nM; apparent KD of MS2 coat protein [3]: 91.6 nM |
| UUUAAUUUUUUUUUUUUACAAGCUUUUUGCUCGUCUUAUACAUGAGGAUCACCCAUGUGGGUGGAGGGUAAAUUAUC [JMF 89] (puzzle: Sensor v3, turn-off variant 2) | 63.6 | – | – | apparent KD of MS2 coat protein [2]: 35.9 nM; apparent KD of MS2 coat protein [3]: 67 nM |
| GAUUAUGCGAGCUUUAGGGACAUGAGGAUCACCCAUGUUCGUCUUAUUGAUCUAGAUGCACUAACAUACCUAAAUCU [JMF 25] (puzzle: Sensor v3, turn-off variant 1) | 25.1 | – | – | apparent KD of MS2 coat protein [2]: 19.7 nM; apparent KD of MS2 coat protein [3]: 20.1 nM |
| GAGUGACAUGAGGAUCACCCAUGUGAGGAUAUCGGACGGACCAAAUUAACAUCCGCCGCGAGAAGGCACAUCGG [Exclusion 1 V22] (puzzle: Exclusion 1) | 69.4 | – | – | – |
| UCGCUGCGAGGAUAUACGUUUGCGCGCUUUCGUUUGCGCGUACAUGAGGAUCACCCAUGUAGAAGGCGCGCCGC [Apr-15 SS2-8] (puzzle: Exclusion 2) | 13.2 | – | – | – |
| UCGCUGCGAGGAUAUACAUGAGGAUCACCCAUGUACGGGUCCGGGUUUUCGUCCAUUAGUAGAAGGCGCAGUGA [JL Laongeedie mod 1] (puzzle: Exclusion 3) | 136 | – | – | – |
| UGAAGUUGUGUGAGGAUAUUUGAAGUGAAAGCUUCGGAGAAGGCACAUGAGGAUCACCCAUGUAAGCGGCUUCG [-25.1, -23 kcal, A 26%, 3bis-3] (Eterna round: R97, puzzle: Brourd's mod of Exclusion 4) | – | 18.4 | 15 | – |
| UGGUAACAUGAGGAUCACCCAUGUCAGGAUAUCAGUAAGAAUAGAUUAGAUUAGAAGAUGAGAAGGGACUAUAU [Excluse me! 5 - Jieux - Exclusion 1] (puzzle: Exclusion 1) | 32 | – | – | apparent KD of MS2 coat protein [2]: 27.6 nM; apparent KD of MS2 coat protein [3]: 36.7 nM |

| Sequence | apparent KD of MS2 coat protein [1] [nM] | apparent KD of MS2 coat protein (input ligand: FMN 200 uM) [nM] | apparent KD of MS2 coat protein (input ligand: none) [nM] | further results |
| --- | --- | --- | --- | --- |
| CCGCAAAAGGAGGAUAUCGUAUCGGAUACGAUACGAGAAGGCCUAACAUGAGGAUCACCCAUGUGUCCUAGCGG [Fiskers Ex 6 - 36] (puzzle: Exclusion 6) | 14.8 | – | – | apparent KD of MS2 coat protein [2]: 23.8 nM; apparent KD of MS2 coat protein [3]: 14.5 nM |
| UUGGUGUCAGGAUAUGCUUAAUGUGUUUUAUUAUAAUAUAUACAUGAGGAUCACCCAUGUAGAAGGGACAUUGU [LRO-Excl2-09-Fireball XL5] (Eterna round: R97, puzzle: Exclusion 2) | – | 48 | 48.5 | – |
| CUUGACUGAGGAUAUUGUGCUGCUGACAUGAGGAUCACCCAUGUAUGUUAACUCGGCCGUCGAGAAGGCAGAAAGG [BotMod 19 - Jieux - Exclusion 5] (Eterna round: R97, puzzle: Exclusion 5) | – | 14.2 | 40.8 | – |
| CUUUUGUGAGGAUAUGGUAACGAUGACAUGAGGAUCACCCAUGUAACAUGGGACUUGAGACUAGAAGGCACUAACG [JR_Ex5_Sub025] (Eterna round: R97, puzzle: Exclusion 5) | – | 94.7 | 134 | – |
| GUUAAGGUAGGAUAUACGAUAAUAUAGGGUAGAUAUAUAACACAUGAGGAUCACCCAUGUAGAAGGACCAAGUG [Mat - Exclusion 2 - Mod of my Tesla design - D60] (puzzle: Exclusion 2) | 43.4 | – | – | – |
| GGUAGAGUGGUAGGAUAUCCGUCUGUUUCAGUCGGAGAAGGACCACAGUCACUGGGUCCUAAUAUCAUGGAGACCUGAUCUACC [pwkr exNG1 F6.12] (Eterna round: R96, puzzle: Exclusion NG 1) | – | 2200 | 284 | apparent KD of MS2 coat protein [4]: 316 nM |
| GGUGCGUAUGUGAGGAUAUGCUGGUCCUUGGAUCAGCAGAAGGCACAUGAGGAUCACCCAUGUGGUGUCGUGCC [salish99_Bmod_Ex4_019] (puzzle: Brourd's mod of Exclusion 4) | 168 | – | – | – |
| CCUCCACAUGAGGAUCACCCAUGUCAGGAUAUCGUGUGCGCGUUUUCGGUCUUUCGCGCGAGAAGGGACGACUG (Eterna round: R96, puzzle: Exclusion 1) | – | 32 | 30.2 | apparent KD of MS2 coat protein [4]: 22.5 nM |
| UUUUGCACGCUGCGGUCCUACAUGAGGAUCACCCAUGUGGUCUGGUGGCGUGGGUCGCCGGACUUGGCUCGUCUUGU [salish99_S_TOV1_R5_036] (Eterna round: R97, puzzle: Sensor, turn-off variant 1) | – | 19 | 19.1 | – |
| UUGAUGUAAGGAUAUCGUGCAAGUUUCAAAAGAGGCUUGUGCGAGAAGGUACAUGAGGAUCACCCAUGUAGGUU [Omei Ex4 B8] (Eterna round: R97, puzzle: Exclusion 4) | – | 113 | 31.7 | – |
| CCGCAUGCUGUCAGGAUAUCGUAGAUAAUAAUAUGCGAGAAGGGACAUGAGGAUCACCCAUGUAAGAGGCGGCC [Design for Riboswitch] (puzzle: Brourd's mod of Exclusion 4) | 24.4 | – | – | – |
| UAAUUAGCAAGUAGAUCCGACAUGAGGAUCACCCAUGUUAUCUGAAAGAACGCAGAAUAACUGUGAGCUCGUCUAAA [Sensor-V1 #1] (Eterna round: R97, puzzle: Sensor, turn-off variant 1) | – | 315 | 333 | – |
| UGAAAGCUAGGAUAUACAUGAGGAUCACCCAUGUACCGGCUUGGCCCUGGUCCAAAGUGUAGAAGGAGCACGCC [Reedcedima] (puzzle: Exclusion 3) | 24.8 | – | – | – |
| GGGAAGUGAGGAUAUAUGAGAGAGGCUGAACCGGACGAGAAGUAGAAGGCACAUGAGGAUCACCCAUGUAGGGA [JR_Exclu4_Sub025] (puzzle: Exclusion 4) | 128 | – | – | – |
| UUAAAACAUGUAGGAUAUGCGUAGAAAAGCUAUGCAGAAGGACAUGAGGAUCACCCAUGUUCAACCAUCAACGUACAGAUGGAA (Eterna round: R96, puzzle: Exclusion NG 1) | – | 31.7 | 14.1 | apparent KD of MS2 coat protein [4]: 12.1 nM |
| CCAGCGUGUGUGAGGAUAUGCUGGUCCUUGGAUCAGCAGAAGGCACAUGAGGAUCACCCAUGUGAGGACGUUGG [JL bmx4 3.32] (puzzle: Brourd's mod of Exclusion 4) | 19.9 | – | – | – |
| CUAUUCCGAGGAUAUACAUGAGGAUCACCCAUGUCGGGCCUCUGCGUUUAGCGCGAAAGUAGAAGGUGGGUUUC [JL Riri mod 9] (Eterna round: R96, puzzle: Exclusion 3) | – | 35.5 | 32 | apparent KD of MS2 coat protein [4]: 26.8 nM |
| UCUUACUGAGGAUAUACAUAGAUUUACAUGAGGAUCACCCAUGUUCCUCUAAGUAUAUAUGUAGAAGGCAGAAGAA [Mat - Exclusion 5 - JL Mod - D43] (Eterna round: R97, puzzle: Exclusion 5) | – | 139 | 370 | – |
